Results from paper PMC3792999, “Identification and Characterization of a Cold-Active Phthalate Esters Hydrolase by Screening a Metagenomic Library Derived from Biofilms of a Wastewater Treatment Plant” (PLoS ONE, 2013).

Assays:
Test in all cases: purified protein
[1] = system: CCCCCOC(=O)c1ccccc1C(=O)OCCCCC; settings: pH 7.5; 10.0 °C
[2] = system: CCCCOC(=O)c1ccccc1C(=O)OCCCC
[3] = system: CCCOC(=O)c1ccccc1C(=O)OCCC; settings: pH 7.5; 10.0 °C
[4] = 10 mM sodium phosphate pH 7.5, 10°C

| Substance | Km [1] | Vmax [1] | kcat/Km [1] | Km ([2]; pH 7.5, 10.0 °C) | Vmax ([2]; pH 7.5, 10.0 °C) | kcat/Km ([2]; pH 7.5, 10.0 °C) | Km [3] | Vmax [3] | kcat/Km [3] | Km [2, 4] | kcat [2, 4] |
| --- | --- | --- | --- | --- | --- | --- | --- | --- | --- | --- | --- |
| DphB (uncultured bacterium) | 378 ± 18 µM | 45.9 µmol/min/mg | 118000 ± 4000 M⁻¹ s⁻¹ | 561 ± 16 µM | 40.7 µmol/min/mg | 70000 ± 2000 M⁻¹ s⁻¹ | 271 ± 12 µM | 46.4 µmol/min/mg | 166000 ± 5000 M⁻¹ s⁻¹ | – | – |
| DphB (uncultured bacterium; D255A) | – | – | – | – | – | – | – | – | – | 20300 ± 1170 µM | 6.95 ± 1.42 s⁻¹ |
